Test results as given in patent US20180236053A1 (CELLECTIS, published 2018).

Experiments:
[1] = target: CD38 antigen on the surface of cells (U266 CD38+, MOLP8, Daudi, T-ALL cell lines, activated T cells) (human, UniProt P28907 1-300); test: cell-based or functional assay
[2] = target: T1, CD38-Fc protein (produced by LakePharma) (UniProt P28907 43-300, limits assumed); test: flow cytometry, CD38 Fc staining of CD38/TRAC double KO T cells transduced with rLV (FIG. 27C)
T1 construct: Staining reagent for CAR detection by flow cytometry; also called CD38-Fc fusion protein; not shown: Fc part
Procedure: The parameters are the following: T cells were activated by using Dynabeads CD3-CD28, the culture were made by using medium Xvivo+5% human serum heat inactivated+IL-2 20 ng/ml, a double KO (DKO) CD38-TRAC was performed by using a ratio of 2 μg TALEN mRNA per million of cells (5 million cells/cuvette); the transduction was performed by using rLV from Vectalys(France) at a MOI of 5.
The screening of the 4 CARs 25A10-v1, -v2, 28F5-v1 and -v2 after rLV transduction in DKO T cells has shown that all the CARs were expressed at the T cell surface with a high efficiency (>40%) and 3 of them above 80% (FIG. 27C). RQR8 expression was correlated with CAR expression (FIG. 27A). Most of the T cells were CD38 negative when T cells have been transduced by CD38 CARs (FIG. 27A). It is shown also that 60-85% of T cells endowed with the above 4 CARs were DKO TRAC/CD38 (FIG. 27B).

[3] = target: T1, CD38-Fc protein (produced by LakePharma); test: flow cytometry, CD38-Fc fusion protein staining of purified CD38-deficient T cells transfected with CAR mRNA (FIG. 15)
Procedure: T cells were purified from buffy coat samples and activated using anti-CD3/CD28 coated beads and IL-2. CD38-1 TALEN mRNA was transfected in T cells at day 4 after activation, 6 days later CD38 negative cells were purified by using magnetic separation (Miltenyi). The day after, CAR mRNAs were transfected. The CAR expression and degranulation capacity of CART cells were assessed 24 hours after the transfection. CAR expression and cytotoxic capacity of CART cells were assessed 48 hours after the transfection.
All CARs were detected 24 h after transfection except the 25A10-V3 However, the latter expressed anti-CD38 CAR above the background. The 13F11-V2, 25A10-V1, 25A10-V2 and 28F5-V2 were highly expressed (more than 80%).

ratio of degranulation against U266 CD38+ and U266 CD38- [1]: > 2 ratio | % of T cells stained by CD38-Fc (CAR expression) [2]: > 40% | % of T cells stained by CD38-Fc (CAR expression) [3]: > 80%
B1: 28F5-V2 CAR (other)
chain: QIQLVQSGPELKKPGETVKISCKASGYTFTKYGMNWVKQTPGKGLKWMGWINTNSGEPTYAEEFKGRFAFSLETSASTAYLQINNLKNEDTATYFCARGAYYRYDGEVSYYAMDYWGQGTSVTVSSGGGGSGGGGSGGGGSQIILTQSPAIMSASLGERVTMTCTATSSLSSSYLHWYQQKPGSSPKLWIYSTSHLASGVPARFSGGGSGTSYSLTISSMEAEDAATYYCHQYHLSPYTFGGGTKLEIKTTTPAPRPPTPAPTIASQPLSLRPEACRPAAGGAVHTRGLDFACDIYIWAPLAGTCGVLLLSLVITLYCKRGRKKLLYIFKQPFMRPVQTTQEEDGCSCRFPEEEEGGCELRVKFSRSADAPAYQQGQNQLYNELNLGRREEYDVLDKRRGRDPEMGGKPRRKNPQEGLYNELQKDKMAEAYSEIGMKGERRRGKGHDGLYQGLSTATKDTYDALHMQALPPR
notes: Chimeric antigen receptor on T cells; signal peptide left out here
